{"source": "patent US20060239990A1", "about": "“Protein Arginine N-Methyltransferase 2 (PRMT-2)” (priority 2003, published 2006)", "key": {"[1]": {"system": "HIV-1 LTR", "test": "HIV-1 reporter transcription, transient co-transfection", "format": "cell-based, human", "procedure": "(§1) Cell culture, transfection, and reporter gene assays. The E1A-transformed, human kidney cell line, 293, and NIH-3T3 cells were maintained in Dulbecco's Modified Eagle Medium (DMEM) supplemented with 10% fetal calf serum and penicillin-streptomycin at 37° C. in 5% carbon dioxide in tissue culture grade Petri dishes. PRMT-2−/− mouse embryo fibroblasts (MEFs) and wild type MEFs were prepared from day 13.5 embryos and maintained in DMEM supplemented with 10% fetal calf serum. MEFs at passage 4 were used in this experiment. Lipofectamine Plus™ reagent (Boehringer Mannheim) was used to transfect both 293 and NIH-3T3 cells according to directions from the manufacturer. […] TNF-α stimulation of cells was done using recombinant TNF-α (200 U/ml) for 12 hours. Transfected cells were harvested at 36 hours, and CAT activity was assayed on 10 to 100 μg of protein from whole cell extracts. CAT assays were performed essentially as described in Leung, K. & Nabel, G. J. Nature 333, 776-778 (1988). To analyze the κB-reporter activity in MEFs, cells were transfected with the reporter (2×kB-Luc) and PRL-TK vector (Promega) using FuGENE6 transfection reagent (Roche). Luciferase activity was analyzed by Dual-Luciferase Reporter Assay System (Promega).\nTo determine whether PRMT-1, 2 or 3 could affect NF-κB function, their potential to regulate effects on transcription of the human immunodeficiency virus type 1 (HIV-1) was examined. Transient co-transfections were performed using PRMT1, PRMT2 and PRMT3 expression plasmids with an HIV-1 reporter plasmid in the human renal epithelial cell line, 293T.\nTo determine its dependence on NF-κB, human immunodeficiency virus type 1 (HIV-1) reporter plasmids with wild-type (WT) or mutant (ΔκB) sites were co-transfected transiently with control or PRMT2 expression plasmids in the different cell lines. […] The KB effect was dose-dependent and was also observed with other inducers of NF-κB, including phorbol […] (PMA) (FIG. 2B, right panel)."}, "[2]": {"system": "E2F1", "test": "E2F reporter assay (GAL4-E2F1 activator, luciferase)", "format": "cell-based", "procedure": "HeLa cells, U2OS cells, and Saos2 cells were seeded at a density of 5×10^4 per well in 24-well plates. Cells were transfected 24 hours later with the indicated plasmid and with 20 ng of pRL-TK (Promega) as an internal control to normalize transfection efficiency. The amount of CMV promoter in the transfection was kept constant using empty vector. Cells were harvested at 30 or 36 hour after transfection and luciferase activity was analyzed by Dual-Luciferase Reporter Assay System (Promega). Luciferase activity was measured as a ratio of Firefly to Renilla. To study endogenous E2F activity in MEFs, PRMT-2^+/+ or PRMT-2^−/− MEFs were seeded at a density of 3×10^5 per well in 6-well plates. Cells were transfected 24 hours later with 3 μg of E2F4B-Luc and 10 ng of pRL-TK plasmid. Cells were harvested at 36 hour after transfection and analyzed for luciferase activity as described above."}, "[3]": {"system": "293 cells", "test": "TNF-α-induced apoptosis in transfected 293 cells", "format": "cell-based, human", "conditions": "TNF-α 1000 U/ml 24 hours", "procedure": "Apoptosis analysis. Apoptosis in PRMT-2-expressing 293 cells was analyzed as follows. Cells were seeded at 2.5×10^5 per well in 6 well plates. The next day, empty vector, mutant IκBα (S32A/S36A), RelA or PRMT-2 was co-transfected with CD2 expression vector. Twenty-four hours after transfection cells were stimulated with TNF-α (1000 U/ml) for 24 hours. Both floating and attached cells in each well were harvested by EDTA treatment. Cells were stained with APC-labeled anti-CD2 antibody (BD Bioscience) in SM buffer (PBS containing 2% FCS). After washing twice with PBS, cells were stained with FITC-labeled Annexin V and propidium iodide using Annexin V FITC Apoptosis Detection Kit (Oncogene), and analyzed by flow cytometry (FACS Caliber, BD Bioscience)."}, "[4]": {"system": "NF-κB", "test": "κB luciferase reporter in MEFs", "format": "cell-based, mouse", "conditions": "PRMT2−/− MEFs complemented by transfection", "procedure": "as §1, with “To analyze the κB-reporter activity in MEFs, cells were transfected with the reporter (2×kB-Luc) and PRL-TK vector (Promega) using FuGENE6 transfection reagent (Roche).” left out\nTo determine whether similar effects would be observed in non-transformed cell lines with physiological levels of protein, NF-κB inducibility was analyzed in mouse embryonic fibroblasts (MEFs) derived from PRMT2 null mice (T. Y. et al., manuscript in preparation). […]"}}, "data": [{"molecule": "PRMT2: human PRMT-2 polypeptide, SEQ ID NO:2, expressed from pVR1012 vector with HA-tag (protein, listed as Homo sapiens, HA tag) MATSGDCPRSESQGEEPAECSEAGLLQEGVQPEEFVAIADYAATDETQLSFLRGEKILILRQTTADWWWGERAGCCGYIPANHVGKHVDEYDPEDTWQDEEYFGSYGTLKLHLEMLADQPRTTKYHSVILQNKESLTDKVILDVGCGTGIISLFCAHYARPRAVYAVEASEMAQHTGQLVLQNGFADIITVYQQKVEDVVLPEKVDVLVSEWMGTCLLFEFMIESILYARDAWLKEDGVIWPTMAALHLVPCSADKDYRSKVLFWDNAYEFNLSALKSLAVKEFFSKPKYNHILKPEDCLSEPCTILQLDMRTVQISDLETLRGELRFDIRKAGTLHGFTAWFSVHFQSLQEGQPPQVLSTGPFHPTTHWKQTLFMMDDPVPVHTGDVVTGSVVLQRNPVWRRHMSVALSWAVTSRQDPTSQKVGEKVFPIWR", "values": [{"measurement": "inhibition of HIV-1 transcription", "setting": "[1]; 293T cells, expression plasmid co-transfected with HIV-1 reporter plasmid", "result": "about 50 fold"}, {"measurement": "HIV-1 transcription from wild-type reporter", "setting": "[1]; 293 cells, basal and TNF-α-dependent", "result": "significantly inhibited both basal and TNF-α-dependent HIV-1 transcription"}, {"measurement": "E2F1-induced promoter activity", "setting": "[2]; HeLa cells, in the presence of the E2F1 activator", "result": "repressed E2F1-induced promoter activity in a dose-dependent manner"}, {"measurement": "E2F1 activity", "setting": "[2]; Saos 2 cells (RB-deficient), without RB", "result": "did not repress E2F1 activity"}, {"measurement": "E2F repression", "setting": "[2]; Saos 2 cells co-transfected with RB", "result": "E2F repression by PRMT2 in a dose-dependent manner was observed"}, {"measurement": "susceptibility to TNF-induced cell death", "setting": "[3]", "result": "increased their susceptibility to TNF-induced cell death"}, {"measurement": "NF-κB induction by TNF-α", "setting": "[4]", "result": "completely abolished NF-κB induction by TNF-α"}]}]}
